Experimental data: article doi:10.1101/2022.12.03.518990
Where two headings read alike, the source gives them in different places.

Legend:
[1] = molecular target: GMPCPP-stabilized microtubules (TAMRA-labeled, polymerized from bovine brain tubulin) (bovine) (UniProt Q6B856); assay: single-molecule TIRF microscopy, dwell times
[2] = molecular target: GMPCPP-stabilized microtubules (TAMRA-labeled, polymerized from bovine brain tubulin) (bovine) (UniProt Q6B856); assay: single-molecule TIRF microscopy, dwell times; remark: listed apart in the source

Chain of UniProt Q6B856 (Q6B856 whole entry, looked up): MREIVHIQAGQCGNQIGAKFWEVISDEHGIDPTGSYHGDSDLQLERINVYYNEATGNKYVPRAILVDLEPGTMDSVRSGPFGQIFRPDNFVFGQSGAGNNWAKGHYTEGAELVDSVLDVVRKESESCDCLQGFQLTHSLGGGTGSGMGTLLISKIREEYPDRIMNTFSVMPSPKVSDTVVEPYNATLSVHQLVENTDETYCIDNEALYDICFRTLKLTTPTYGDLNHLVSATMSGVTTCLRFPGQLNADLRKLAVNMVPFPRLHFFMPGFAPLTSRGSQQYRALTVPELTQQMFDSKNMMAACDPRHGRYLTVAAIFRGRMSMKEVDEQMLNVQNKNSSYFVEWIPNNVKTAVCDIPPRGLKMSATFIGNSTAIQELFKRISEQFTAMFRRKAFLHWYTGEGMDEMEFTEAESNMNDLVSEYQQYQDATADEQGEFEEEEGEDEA

mean dwell time [1]: 3.8 s | mean dwell time [2]: 0.53 s
Substance: His-EGFP-L-TOG2-S (EGFP-tagged TOG2 domain and serine-arginine-rich region of human CLASP2α) (domain or fragment)
